Drawing on patent publication US20150098946A1 (Genentech, published 2015), this text covers Kd for eight molecules.

The assay deals with T1, TAT194 polypeptide as used in the BIAcore analysis (human, UniProt P07949 29-635, limits assumed).
T1 construct: The construct used for the BIAcore analysis (extracellular domain, tag, fusion, isoform) is not described; also called RET
The experiment in a line: standard BIAcore analysis.

Substitutions are numbered along the chain they refer to.

B1: anti-TAT194 monoclonal antibody R4204 (antibody, V domains shown)
VH: QVQLQQSGAELAKPGTSVKMSCKASGYTFTTYWMHWIKQRPGQGLEWIGYINPSTGYSEYNQKFKDKATLTADRSSSTAYMQLSSLTSEDSTVYYCARWRFYGSTYGMDYWGQGTSVTVSS
VL: QIVLTQSPALMSAFPGEKVTLTCSASSSVTYMYWYQQKPRSSPKPWIYLTSKLASGVPSRFSGSGSGTSFSLTITSMEAEDAATYYCQQWTGNPLTFGAGTKLELKR
notes: Monoclonal antibody from a mouse hybridoma; kappa VL
The molecule B1 displayed a Kd of 169 nM.

B2: anti-TAT194 monoclonal antibody R4209 (antibody, V domains shown)
VH: EVNLEESGGGLVQPGGSMKLSCVASGFTFSNYWMNWVRQSPEKGLEWVADISLKSNNYGTHYAESVNGRFTISRDDSTSSVYLQMNNLRAEDTGIYYCAVYYYGVKFYYFVLGYWGQGTSVTVSS
VL: DIVMTQSHKFMSTSVGDRVSITCKASQDVSTAVAWYQQKPGQSPKLLIYWGSTRHTGVPDRFTGVGSGTDYSLTISSVQAEDLALYYCQQHYNIPWTFGGGTKLEIKR
notes: as for B1
B2: the Kd is 2.55 nM.

B3: anti-TAT194 monoclonal antibody R4212 (antibody, V domains shown)
VH: DVQLQESGPGLVAPSQSLSITCTVSGFSLSRYSVHWVRQPPGKGLEWLGMIWLGGSTDYNSALKSRLSISKDISKSQVFLKMNSLQTDDTAMYYCARNLDSRGFAHWGQGTLVTVSA
VL: DVLMTQTPLSLPVSLGDQASISCRSSQSIVHSNGNTYLEWYLQKPGQSPKLLIYKVSNRFSGVPDRFSGSGSGTDFTLKISRVEAEDLGVYYCFQGSHVPPTFGGGTKLEIKR
notes: as for B1
B3 came in with a Kd of 105 nM.

B4: anti-TAT194 monoclonal antibody R4203 (antibody, V domains shown)
VH: EVQLQQSGPELVKPGASMKISCKASGYSFTGFTMNWVKQSHGKNLEWIGLINPYNGVTNYNQKFRGKATLTVDESSSTAYMDLLSLTSEDSAVYYCARHYSFAMDYWGQGTSVTVSS
VL: DIVLTQSPASLAVSLGQRATISCRASESVDGYGSSFMHWYQQKPGQPPKLLIYRTSNLESGIPARFSGSGSTTDFTLTINPVEADDVATYYCQQNSEDRTFGGGTKLEIKR
notes: as for B1
In turn, B4 showed a Kd of 0.1 nM.

B5: anti-TAT194 monoclonal antibody R4205 (antibody, V domains shown)
VH: QVQLKESGPGLVKPSQSLSLTCTVTGYSITSDYVWNWIRQFPGNKLEWMGYIHYSGGTSYNPSLKSRISITRDTSKNQFFLHLNSLTTEDTATYYCARGNYDWAFAYWGQGTLVTVSA
VL: DVQITQSPSYLAASPGETITINCRASKSISKYLAWYQDKPGKTNKLLISSGSTLQSGIPSRFSGSGSGADFTLTISSLEPEDFAMYYCQQHNEYPWTFGGGTKLEIKR
notes: Monoclonal antibody from a mouse hybridoma; kappa VL; also called anti-RET murine monoclonal antibody clone 4205
B5 displayed a dissociation constant (Kd) of 0.18 nM.

B6: anti-TAT194 monoclonal antibody R4206 (antibody, V domains shown)
VH: DVQLQESGPGLVKPSQSLSLTCTVTGFSITSDYAWNWIRQFPGNKLEWMAYITYSGDTGYNPSLKSRISVTRDTSKNQFFLQLSSVTTEDTATYYCARGNYDWVFAYWGQGTLVTVSA
VL: B5 VL with D38E, S49Y, A69T, H91Y, N92I
notes: as for B1
Regarding B6, the Kd turned out to be 0.34 nM.

B7: anti-TAT194 monoclonal antibody R4207 (antibody, V domains shown)
VH: B6 VH
VL: B5 VL with D38E, S49Y, A69T, H91Y, N92I
notes: as for B1
Molecule B7 had a Kd of 0.54 nM.

B8: anti-TAT194 monoclonal antibody R4208 (antibody, V domains shown)
VH: QVHLQQSGSELRSPGSSVKLSCKDFDSEVFPIAYMSWVRQKPGHGFEWIGDILPNIGRTIYGEKFEDKATLDADTVSNTAYLELNSLTSEDSAMYYCGRSITRAWFAYWGQGTLVTVSV
VL: DIQMTQSPSSLSASLGERVSLTCRASQEISGYLSWFQQKPDGTIKRLIYAASTLDSGVPKRFSGSRSGSDYSLTISSLASEDFADYFCLQYAGNPFTFGSGTKLEIKR
notes: as for B1
In the case of B8, the dissociation constant Kd worked out at 1.25 nM.
